Data from paper PMC10576099, “Endothelial discoidin domain receptor 1 senses flow to modulate YAP activation” (Nature Communications, 2023).

Experiments:
[1] = target: the molecule itself; assay: dual-color FRAP with antibody immobilisation; EA.hy926 ECs co-expressing DDR1-EGFP and mCherry-DDR1, 5 min pre-shear; anti-mCherry polyclonal antibody immobilises the mCherry copy, lateral mobility of the EGFP copy read by FRAP
[2] = target: T1, DDR1 (416-913aa)-EGFP (human, UniProt Q08345 416-913); assay: cell-free droplet (phase separation) assay + turbidity; purified DDR1-C or DDR1-N (5 μM) incubated with varying concentrations of YWHAE-Cherry; 20 mM Tris-HCl pH 7.0, 75 mmol/L KCl, 1 mmol/L DTT, 4 °C 5-10 min, confocal imaging; turbidity at 600 nm with 5% PEG8000; conditions: both partners purified
T1 construct: human DDR1 (DDR1b), residues 416-913, containing the transmembrane and cytosolic domains; also called DDR1-C; source: E. coli Transetta (DE3), purified (Ni-NTA)

Binder	FRAP recovery ratio of the EGFP copy with the mCherry copy immobilised [1] [%]	binding result [2]
WT DDR1-EGFP co-expressed with mCherry-WT DDR1 (dual-color FRAP) (receptor, human, UniProt Q08345 19-913, looked up, human DDR1, DDR1b isoform, from a plasmid with full-length DDR1b; Two differently tagged copies of the same protein in one cell: each copy has only one of the two fluorescent proteins; The mCherry copy is held by an anti-mCherry polyclonal antibody, the EGFP copy is the one whose mobility is read; also called DDR1 (WT)-GFP; mCherry-DDR1 (WT); source: EA.hy926 ECs, transfected, in living cells; …) DADMKGHFDPAKCRYALGMQDRTIPDSDISASSSWSDSTAARHSRLESSDGDGAWCPAGSVFPKEEEYLQVDLQRLHLVALVGTQGRHAGGLGKEFSRSYRLRYSRDGRRWMGWKDRWGQEVISGNEDPEGVVLKDLGPPMVARLVRFYPRADRVMSVCLRVELYGCLWRDGLLSYTAPVGQTMYLSEAVYLNDSTYDGHTVGGLQYGGLGQLADGVVGLDDFRKSQELRVWPGYDYVGWSNHSFSSGYVEMEFEFDRLRAFQAMQVHCNNMHTLGARLPGGVECRFRRGPAMAWEGEPMRHNLGGNLGDPRARAVSVPLGGRVARFLQCRFLFAGPWLLFSEISFISDVVNNSSPALGGTFPPAPWWPPGPPPTNFSSLELEPRGQQPVAKAEGSPTAILIGCLVAIILLLLLIIALMLWRLHWRRLLSKAERRVLEEELTVHLSVPGDTILINNRPGPREPPPYQEPRPRGNPPHSAPCVPNGSALLLSNPAYRLLLATYARPPRGPGPPTPAWAKPTNTQAYSGDYMEPEKPGAPLLPPPPQNSVPHYAEADIVTLQGVTGGNTYAVPALPPGAVGDGPPRVDFPRSRLRFKEKLGEGQFGEVHLCEVDSPQDLVSLDFPLNVRKGHPLLVAVKILRPDATKNARNDFLKEVKIMSRLKDPNIIRLLGVCVQDDPLCMITDYMENGDLNQFLSAHQLEDKAAEGAPGDGQAAQGPTISYPMLLHVAAQIASGMRYLATLNFVHRDLATRNCLVGENFTIKIADFGMSRNLYAGDYYRVQGRAVLPIRWMAWECILMGKFTTASDVWAFGVTLWEVLMLCRAQPFGQLTDEQVIENAGEFFRDQGRQVYLSRPPACPQGLYELMLRCWSRESEQRPPFSQLHRFLAEDALNTV	49.2 ± 9.6	–
locked DDR1-EGFP (D189C/F364C) co-expressed with mCherry-locked DDR1 (dual-color FRAP) (receptor, human, UniProt Q08345 19-913, looked up, human DDR1, DDR1b isoform, DS-like domain locked by two cysteines; Two differently tagged copies of the same mutant in one cell, as for m3; also called DS-like locked mutant; source: EA.hy926 ECs, transfected, in living cells; not shown: EGFP (on one copy); mCherry (on the other copy)) DADMKGHFDPAKCRYALGMQDRTIPDSDISASSSWSDSTAARHSRLESSDGDGAWCPAGSVFPKEEEYLQVDLQRLHLVALVGTQGRHAGGLGKEFSRSYRLRYSRDGRRWMGWKDRWGQEVISGNEDPEGVVLKDLGPPMVARLVRFYPRADRVMSVCLRVELYGCLWRCGLLSYTAPVGQTMYLSEAVYLNDSTYDGHTVGGLQYGGLGQLADGVVGLDDFRKSQELRVWPGYDYVGWSNHSFSSGYVEMEFEFDRLRAFQAMQVHCNNMHTLGARLPGGVECRFRRGPAMAWEGEPMRHNLGGNLGDPRARAVSVPLGGRVARFLQCRFLFAGPWLLFSEISCISDVVNNSSPALGGTFPPAPWWPPGPPPTNFSSLELEPRGQQPVAKAEGSPTAILIGCLVAIILLLLLIIALMLWRLHWRRLLSKAERRVLEEELTVHLSVPGDTILINNRPGPREPPPYQEPRPRGNPPHSAPCVPNGSALLLSNPAYRLLLATYARPPRGPGPPTPAWAKPTNTQAYSGDYMEPEKPGAPLLPPPPQNSVPHYAEADIVTLQGVTGGNTYAVPALPPGAVGDGPPRVDFPRSRLRFKEKLGEGQFGEVHLCEVDSPQDLVSLDFPLNVRKGHPLLVAVKILRPDATKNARNDFLKEVKIMSRLKDPNIIRLLGVCVQDDPLCMITDYMENGDLNQFLSAHQLEDKAAEGAPGDGQAAQGPTISYPMLLHVAAQIASGMRYLATLNFVHRDLATRNCLVGENFTIKIADFGMSRNLYAGDYYRVQGRAVLPIRWMAWECILMGKFTTASDVWAFGVTLWEVLMLCRAQPFGQLTDEQVIENAGEFFRDQGRQVYLSRPPACPQGLYELMLRCWSRESEQRPPFSQLHRFLAEDALNTV	67.6 ± 4	–
YWHAE-Cherry recombinant protein (natural protein, UniProt P62258 1-255, looked up, YWHAE (14-3-3ε), Uniprot No. P62258; also called recombinant YWHAE protein; source: bought: Dai-An Biotechnology (Wuhan); expressed by E. coli BL21 (DE3), purity >90% by SDS-PAGE; not shown: mCherry, C-terminal, kept) MDDREDLVYQAKLAEQAERYDEMVESMKKVAGMDVELTVEERNLLSVAYKNVIGARRASWRIISSIEQKEENKGGEDKLKMIREYRQMVETELKLICCDILDVLDKHLIPAANTGESKVFYYKMKGDYHRYLAEFATGNDRKEAAENSLVAYKAASDIAMTELPPTHPIRLGLALNFSVFYYEILNSPDRACRLAKAAFDDAIAELDTLSEESYKDSTLIMQLLRDNLTLWTSDMQGDGEEQNKEALQDVEDENQ	–	binds
